Experimental data taken from patent publication US5616558A, “Medicaments comprising glicentin as active ingredient” (Nisshin Flour Milling Co., Ltd., priority 1992, dated 1997).

Experiments:
male MALB/c mice = assay: intraperitoneal administration to mice, observation of appearance; type: in vivo; details: 10 mg/kg intraperitoneally, male MALB/c mice (6 weeks age)
arginine loaded dogs = assay: infusion into the pancreatic artery of arginine loaded dogs; plasma insulin, plasma glucagon and blood glucose measured; type: in vivo, mongrel dogs; details: 100 pmol or 400 pmol glicentin solution infused into the pancreatic artery for 10 minutes
Protocol: Healthy mongrel dogs weighing 13 to 17 kg were subjected to the test after an overnight fast (A. Ohneda et al., Hotre. Metab. Res., 9, 447-452 (1977)).
The animals were anesthetized with sodium pentobarbital (Nembutal®) and their abdomens were opened. […] After the operation was completed, saline solution containing 0.5% arginine was infused into the pancreatic artery at a constant rate of 2 ml/min through the cannula using an infusion pump. […] 4 ml portions of blood samples for hormone assay were collected at various intervals into a glass tube containing 1000 KIU aprotinine and 10 mg EDTA.
The plasma insulin was measured in accordance with a known method mentioned in C.
The blood glucose was measured for blood drawn from the femoral artery by the glucose oxidase method using a test kit for the determination of blood glucose (available from Wako Pure Chemical Industries, Japan under the trade name of "Glucose B-Test Wako").

B1: glicentin: peptide comprising 69 amino acid residues, major component of gut glucagon-like immunoreactants; produced by recombinant DNA in E. coli (protein)
chain: RSLQDTEEKSRSFSASQADPLSDPDQMNEDKRHSQGTFTSDYSKYLDSRRAQDFVQWLMNTKRNRNNIA
- change in appearance (male MALB/c mice): no change in appearance
- insulin secretion (plasma insulin, IRI) (arginine loaded dogs; 0.5% arginine infusion, anesthetized dogs): stimulates insulin secretion
- glucagon level (IRG(G 21)) (arginine loaded dogs; antiserum G 21 specific for C-terminal portion of glucagon): not increased
- blood glucose levels (arginine loaded dogs; blood from femoral artery, glucose oxidase method): no change
